The record followed here is US20050036942A1 (Genentech, published 2005).

The target of one experiment is T1, murine PSCA (mPSCA) (murine, UniProt P57096 21-95).
T1 construct: also called muPSCA; his Mu PSCA - E. coli
T1 sequence (looked up): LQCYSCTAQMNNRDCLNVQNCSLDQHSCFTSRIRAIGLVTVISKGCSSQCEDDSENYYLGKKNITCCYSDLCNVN
Nature of the experiment: direct ELISA, antigen coated at 1 µg/ml. (In general: ELISA stands for enzyme-linked immunosorbent assay.)

Experiment [1] has as its target gD-tagged human PSCA expressed on transfected cells (Herpes Simplex virus; human, UniProt O43653 12-91).

Description for murine PSCA (mPSCA): HuPSCA and murine PSCA (mPSCA) were coated overnight at 1 μg/ml onto a microtiter plate (Nunc). The anti-PSCA Mab and controls were added to the antigen-coated wells and incubated at room temperature. Unbound antibody was washed off and a horseradish peroxidase (HRP)-conjugated secondary antibody was added to the wells and incubated with the antibodies at room temperature. OPD substrate solution was finally added and concentrated sulfuric acid was used to stop the reaction. The plate was read at 492 nm using a microtiter plate reader.

B1: anti-PSCA monoclonal antibody 6B8.1D7.2B3 (antibody, V domains shown)
VH: EVQLQQSGPDLEKPGASVKISCKPSGNSFTGYYIHWVKQSHGKSLEWIGRVDPNNGFTSYNQKFKGKAILTVDKSSSTAYMELRSLTSEDSAVYYCVGNFFDSWGQGTTLTVSS
VL: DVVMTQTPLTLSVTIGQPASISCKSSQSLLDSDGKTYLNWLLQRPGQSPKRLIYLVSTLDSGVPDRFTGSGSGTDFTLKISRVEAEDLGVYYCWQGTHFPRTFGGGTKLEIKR
notes: also called Asc# 2761; #2761
For B1, the binding result with murine PSCA (mPSCA) is listed as “no binding”.

B2: anti-PSCA monoclonal antibody 5F2.4H4.1E3 (antibody, V domains shown)
VH: QVQVQQPGAELVKPGAPVKLSCKASGYTFTNYWLNWVKQRPGRGLEWIGRIDPSDSEIHYDQKFKDKATLTVDKSSSTAYIQLSSLTSEDSAVYYCALTGIYAMAYWGQGTSVTVSS
VL: DIVMTQAAPSVPVTPGESVSISCRSSKSLLHSNGNTYLYWFLQRPGQSPQLLIYRMSNLASGVPDRFSGSGSGTAFTLRISRVEAEDVGVYYCLQHLEYPYTFGGGTKLELKR
The molecule B2 came in with an IC50 in experiment [1] of 13 nM.

As usually defined, the IC50 is the concentration needed to halve the response being measured.
